Source: article PMC10090120, “Cryo-EM structures of mitochondrial ABC transporter ABCB10 in apo and biliverdin-bound form” (Nature Communications, 2023)

Molecular target: the molecule itself
Assay: cryo-EM structure; ABCB10 E659Q at ~4 mg/mL in 50 mM HEPES pH 7.5, 150 mM NaCl, 0.005% GDN, 0.0005% CHS, incubated with 1 mM biliverdin for 30 min and vitrified; BV-free (apo) and BV-bound maps from a single data set; C2 symmetry

B1: human ABCB10 (residues A152-A738) E659Q mutant (domain or fragment, UniProt Q9NRK6 152-738, looked up)
chain: AGLPEARKLLGLAYPERRRLAAAVGFLTMSSVISMSAPFFLGKIIDVIYTNPTVDYSDNLTRLCLGLSAVFLCGAAANAIRVYLMQTSGQRIVNRLRTSLFSSILRQEVAFFDKTRTGELINRLSSDTALLGRSVTENLSDGLRAGAQASVGISMMFFVSPNLATFVLSVVPPVSIIAVIYGRYLRKLTKVTQDSLAQATQLAEERIGNVRTVRAFGKEMTEIEKYASKVDHVMQLARKEAFARAGFFGATGLSGNLIVLSVLYKGGLLMGSAHMTVGELSSFLMYAFWVGISIGGLSSFYSELMKGLGAGGRLWELLEREPKLPFNEGVILNEKSFQGALEFKNVHFAYPARPEVPIFQDFSLSIPSGSVTALVGPSGSGKSTVLSLLLRLYDPASGTISLDGHDIRQLNPVWLRSKIGTVSQEPILFSCSIAENIAYGADDPSSVTAEEIQRVAEVANAVAFIRNFPQGFNTVVGEKGVLLSGGQKQRIAIARALLKNPKILLLDQATSALDAENEYLVQEALDRLMDGRTVLVIAHRLSTIKNANMVAVLDQGKITEYGKHEELLSKPNGIYRKLMNKQSFISA
notes: E659Q in the Walker-B motif; The vector adds a C-terminal TEV protease site before the FLAG and 10xHis tags; no cleavage is described; The model of ABCB10-apo covers residues 156-724 (528-532 missing), that of ABCB10-BV residues 154-724 (629-631 missing); also called ABCB10 E659Q; ABCB10-apo
stoichiometry N: 2
